Source: the DeepSol protein solubility set

Experiment: soluble on expression in E. coli; label from the status in PepcDB or PDB records

Row | Sequence | soluble on expression in E. coli
1 | MTHQTHTIAESNNFIVLDKYIKAEPTGDSYQSESDLERELIQDLRNQGYEFISVKSQSAMLANVREQLQNLNGVVFNDSEWRRFTEQYLDNPSDGILDKTRKIHIDYICDFIFDDERLENIYLIDKKNLMRNKVQIIQQFEQAGSHANRYDVTILVNGLPLVQIELKKRGVAIREAFNQIHRYSKESFNSENSLFKYLQLFVISNGTDTRYFANTTKRDKNSFDFTMNWAKSDNTLIKDLKDFTATCFQKHTLLNVLVNYSVFDSSQTLLVMRPYQIAATERILWKIKSSFTAKNWSKPESGGYIWHTTGSGKTLTSFKAARLATELDFIDKVFFVVDRKDLDYQTMKEYQRFSPDSVNGSENTAGLKRNLDKDDNKIIVTTIQKLNNLMKAESDLPVYNQQVVFIFDECHRSQFGEAQKNLKKKFKRYYQFGFTGTPIFPENALGSETTASVFGRELHSYVITDAIRDEKVLKFKVDYNDVRPQFKSLETETDEKKLSAAENQQAFLHPMRIQEITQYILNNFRQKTHRTFPGSKGFNAMLAVSSVDAAKAYYATFKRLQEEAANKSATYKPLRIATIFSFAANEEQNAIGEISDETFDTSAMDSSAKEFLDAAIREYNSHFKTNFSTDSNGFQNYYRDLAQRVKNQDIDLLIVVGMFLTGFDAPTLNTLFVDKNLRYHGLMQAFSRTNRIYDATKTFGNIVTFRDLERSTIDAITLFGDKNTKNVVLEKSYTEYMEGFTDAATGEAKRGFMTVVSELEQRFPDPTSIESEKEKKDFVKLFGEYLRAENILQNYDEFATLKALQQIDLSDPVAVEKFKAEHYVDDEKFAELQTIRLPADRKIQDYRSAYNDIRDWQRREKEAEKKEKSTTDWDDVVFEVDLLKSQEINLDYILGLIFEHNRQNKGKGEMIEEVKRLIRSSLGNRAKEGLVVDFIQQTNLDDLPDKASIIDAFFTFAQREQQREAEALIKEENLNEDAAKRYIRTSLKREYATENGTELNETLPKLSPLNPQYKTKKQAVFQKIVSFIEKFKGVGGKI | soluble
2 | MGSDKIHHHHHHMRIEITPISESALVCRLNAPSELGKQQKLWAFAAALGQHDRIEEVVVGMNNLTVFTRFDTDLATLADELQYVWEHTAVTDHQGKLVEIPVCYGGEYGPDLAEVAAFHQTVISEIVRRHTAQTYTVFMMGFQPGFPYLGGLPEALHTPRRAVPRTSVPAGSVGIGGSQTGVYPFASPGGWQIIGRTELPLFRADLNPPTLLAAGDQVRFVAERIEP | not soluble
3 | MSLTPIEAMKLAAGEIAGEKSLKTLAEVVDILSQEQDVTKRFGQKGLGQRNLGRAVQLLVESSETNEGRCMVAYDVFKSLERIVLDYVPDQNDRAKYLEDLKIAKGLYRERIMTEMFNAYMDEPYAVKKDVMNYVNMIIGIDAESLGPDRMWKYKDPQTGELKALKIDERYVKNVEDRLGLKTDEQRESFRTSIRKIYGQKISVDSTYDFMDNLELVKAVTDVRLKSDIAGAGSLIGALANRTNEENQKLYDRMVDTMLKKLGYCRTCAQKTIEYFCTQEDEGHHHHHH | soluble
4 | MDWGRFVEEKVREIRETVGDSKAIIALSGGVDSSTAAVLAHKAIGDRLHAVFVNTGFLRKGEPEFVVKTFRDEFGMNLHYVDAQDRFFSALKGVTDPEEKRKIIGRVFIEVFEEVAKKIGAEYLIQGTIAPDWIESQGKIKSHHNVGGLPEKLNLKLIEPLRDLYKDEVRELAKFLGLPEKIYNRMPFPGPGLAVRVIGEVTPEKIRIVREANAIVEEEVERAGLRPWQAFAVLLGVKTVGVQGDIRAYKETIAVRIVESIDGMTANAMNVPWEVLQRIAFRITSEIPEVGRVLYDITNKPPATIEFE | soluble
5 | MKVEEQYLQLFRENREAIDSHSPRVLNEQREKASMAFASKGLPRYGTENYQRTDLSELFGYDYGVNLNRVNFPIRQKEAFHCTLPDLDTDLCYIVNDAYDNEWSRVSELPEGAFVGSLSDFALSHPEIAARYYAQAAAPDHDGIIAFSTMFAQDGFIIYLPDGAVLKNPIQLVQLLRADMEIL | not soluble
